Test in all cases: Arrestin agonist mode
Common to all, as to assay type: cell-based

One test addresses EBI2 (Homo sapiens, UniProt P32249).
Another test concerns the target FFAR1 (Homo sapiens, UniProt O14842). The note with it: read-out: RC50 (the source's name).
Another test deals with CRTH2 (Homo sapiens, UniProt Q9Y5Y4). The note with it: read-out: RC50 (the source's name).
The next test has as its target EDG1 (Homo sapiens, UniProt P21453). The note with it: read-out: RC50 (the source's name).
The next test concerns the target EDG3 (Homo sapiens, UniProt Q99500). The note with it: read-out: RC50 (the source's name).
Another test addresses EDG6 (Homo sapiens, UniProt O95977). The note with it: read-out: RC50 (the source's name).
The target of the next test is CCR2 (Homo sapiens, UniProt P41597). The note with it: read-out: RC50 (the source's name).
Sequence of CCR2 (P41597 whole entry): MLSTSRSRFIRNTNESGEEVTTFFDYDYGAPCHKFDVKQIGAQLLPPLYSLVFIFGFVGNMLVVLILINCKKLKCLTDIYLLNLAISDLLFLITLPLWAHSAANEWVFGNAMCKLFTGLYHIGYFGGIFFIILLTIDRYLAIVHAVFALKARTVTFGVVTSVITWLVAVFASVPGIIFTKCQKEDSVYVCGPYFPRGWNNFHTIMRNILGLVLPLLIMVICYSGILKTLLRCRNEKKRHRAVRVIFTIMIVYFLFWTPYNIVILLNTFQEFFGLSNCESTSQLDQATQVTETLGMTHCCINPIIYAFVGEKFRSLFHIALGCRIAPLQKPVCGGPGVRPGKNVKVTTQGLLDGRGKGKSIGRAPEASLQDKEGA
The target of another test is T1, CCR1 (Homo sapiens, UniProt P32246).
T1 sequence (P32246 1-355): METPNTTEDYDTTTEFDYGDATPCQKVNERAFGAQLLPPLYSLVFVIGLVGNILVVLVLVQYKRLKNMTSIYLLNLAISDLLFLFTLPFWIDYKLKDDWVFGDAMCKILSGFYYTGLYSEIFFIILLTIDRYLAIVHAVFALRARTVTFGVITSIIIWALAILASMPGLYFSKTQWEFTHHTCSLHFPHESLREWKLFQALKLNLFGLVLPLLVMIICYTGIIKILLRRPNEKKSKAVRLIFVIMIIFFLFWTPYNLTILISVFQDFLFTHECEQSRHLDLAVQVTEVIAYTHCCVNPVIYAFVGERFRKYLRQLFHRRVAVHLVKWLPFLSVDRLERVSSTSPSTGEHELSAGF
The note with it: read-out: RC50 (the source's name).

A further test concerns the target CCR5 (Homo sapiens, UniProt P51681). Conditions: read-out: RC50 (the source's name).
Another test addresses T2, CCR3 (Homo sapiens, UniProt P51677).
T2 sequence (P51677 1-355): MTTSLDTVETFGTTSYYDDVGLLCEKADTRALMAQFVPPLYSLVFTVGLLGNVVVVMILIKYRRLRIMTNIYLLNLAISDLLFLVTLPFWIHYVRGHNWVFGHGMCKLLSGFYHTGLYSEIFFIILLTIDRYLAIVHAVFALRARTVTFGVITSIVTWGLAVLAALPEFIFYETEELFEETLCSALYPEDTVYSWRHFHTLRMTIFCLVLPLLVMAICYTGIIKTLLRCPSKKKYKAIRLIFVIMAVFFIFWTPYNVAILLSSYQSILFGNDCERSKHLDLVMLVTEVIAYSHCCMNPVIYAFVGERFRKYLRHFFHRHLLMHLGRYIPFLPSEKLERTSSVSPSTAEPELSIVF
The note with it: read-out: RC50 (the source's name).

For another test, the target named is T3, CCR7 (Homo sapiens, UniProt P32248).
T3 sequence (P32248 25-378): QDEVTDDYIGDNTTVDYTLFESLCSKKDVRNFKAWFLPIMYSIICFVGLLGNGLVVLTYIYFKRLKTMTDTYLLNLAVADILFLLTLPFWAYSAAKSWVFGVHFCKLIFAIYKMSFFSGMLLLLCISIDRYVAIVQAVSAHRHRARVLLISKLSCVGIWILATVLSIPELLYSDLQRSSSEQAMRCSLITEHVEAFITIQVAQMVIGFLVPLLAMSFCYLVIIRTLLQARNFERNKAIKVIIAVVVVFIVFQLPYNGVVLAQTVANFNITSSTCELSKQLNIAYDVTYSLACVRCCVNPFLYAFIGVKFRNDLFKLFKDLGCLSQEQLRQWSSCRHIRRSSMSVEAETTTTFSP
The note with it: read-out: RC50 (the source's name).

A further test addresses T4, CCR6 (Homo sapiens, UniProt P51684).
T4 sequence (P51684 1-374): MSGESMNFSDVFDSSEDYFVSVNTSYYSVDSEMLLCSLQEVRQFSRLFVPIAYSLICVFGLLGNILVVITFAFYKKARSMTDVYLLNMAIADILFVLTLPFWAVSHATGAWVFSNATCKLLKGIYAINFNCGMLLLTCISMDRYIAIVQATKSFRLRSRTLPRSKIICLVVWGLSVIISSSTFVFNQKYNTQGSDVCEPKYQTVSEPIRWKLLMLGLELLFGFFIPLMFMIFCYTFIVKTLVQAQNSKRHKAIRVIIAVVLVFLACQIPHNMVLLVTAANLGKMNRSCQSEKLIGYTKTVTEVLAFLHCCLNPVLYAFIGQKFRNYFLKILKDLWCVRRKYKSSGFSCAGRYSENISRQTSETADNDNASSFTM
The note with it: read-out: RC50 (the source's name).

The next test addresses T5, CXCR1 (Homo sapiens, UniProt P25024).
T5 sequence (P25024 1-350): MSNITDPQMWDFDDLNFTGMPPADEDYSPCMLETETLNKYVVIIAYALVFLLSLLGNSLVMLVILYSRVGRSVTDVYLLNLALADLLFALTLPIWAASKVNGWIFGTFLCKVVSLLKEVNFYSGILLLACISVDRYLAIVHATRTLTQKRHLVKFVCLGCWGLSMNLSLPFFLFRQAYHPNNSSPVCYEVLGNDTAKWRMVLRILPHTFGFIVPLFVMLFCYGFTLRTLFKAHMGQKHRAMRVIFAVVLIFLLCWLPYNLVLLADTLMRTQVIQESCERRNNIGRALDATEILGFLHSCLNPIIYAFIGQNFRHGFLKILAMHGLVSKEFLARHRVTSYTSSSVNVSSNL
The note with it: read-out: RC50 (the source's name).

A further test has as its target T6, CXCR2 (Homo sapiens, UniProt P25025).
T6 sequence (P25025 1-360): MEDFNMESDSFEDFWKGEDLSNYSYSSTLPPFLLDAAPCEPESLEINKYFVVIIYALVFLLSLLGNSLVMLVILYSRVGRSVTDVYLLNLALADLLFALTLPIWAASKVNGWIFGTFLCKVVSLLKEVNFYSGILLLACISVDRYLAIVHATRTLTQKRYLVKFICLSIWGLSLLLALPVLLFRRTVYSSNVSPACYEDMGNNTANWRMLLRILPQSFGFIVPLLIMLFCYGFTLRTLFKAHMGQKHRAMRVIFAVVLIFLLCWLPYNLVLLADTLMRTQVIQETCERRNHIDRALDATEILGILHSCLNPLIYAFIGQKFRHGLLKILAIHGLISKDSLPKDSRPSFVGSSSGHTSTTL
The note with it: read-out: RC50 (the source's name).

The target of the next test is T7, CXCR3 (Homo sapiens, UniProt P49682).
T7 sequence (P49682 1-368): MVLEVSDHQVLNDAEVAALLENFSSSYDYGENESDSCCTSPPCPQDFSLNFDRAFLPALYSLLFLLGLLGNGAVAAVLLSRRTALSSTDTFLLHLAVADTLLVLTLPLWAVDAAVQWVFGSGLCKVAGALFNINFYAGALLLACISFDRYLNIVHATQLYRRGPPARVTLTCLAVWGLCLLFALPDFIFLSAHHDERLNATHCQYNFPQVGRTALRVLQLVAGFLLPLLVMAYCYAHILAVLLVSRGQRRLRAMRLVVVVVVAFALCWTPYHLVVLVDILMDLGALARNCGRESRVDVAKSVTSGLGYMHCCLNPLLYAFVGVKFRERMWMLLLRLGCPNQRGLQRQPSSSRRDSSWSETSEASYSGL
Conditions: read-out: RC50 (the source's name).

For the next test, the target named is T8, CXCR5 (Homo sapiens, UniProt P32302).
T8 sequence (P32302 1-372): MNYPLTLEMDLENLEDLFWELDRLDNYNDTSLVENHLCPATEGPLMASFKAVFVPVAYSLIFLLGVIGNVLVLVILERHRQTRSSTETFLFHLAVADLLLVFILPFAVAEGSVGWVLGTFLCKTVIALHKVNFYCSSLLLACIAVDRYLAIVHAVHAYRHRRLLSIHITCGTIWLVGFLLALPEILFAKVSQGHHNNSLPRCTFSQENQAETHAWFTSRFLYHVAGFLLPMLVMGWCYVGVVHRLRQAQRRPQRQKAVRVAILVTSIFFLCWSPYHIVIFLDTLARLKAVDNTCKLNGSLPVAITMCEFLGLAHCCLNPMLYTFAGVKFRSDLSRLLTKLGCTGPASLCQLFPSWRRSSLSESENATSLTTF
The note with it: read-out: RC50 (the source's name).

The target of another test is T9, GPR1 (Homo sapiens, UniProt P46091).
T9 sequence (P46091 1-355): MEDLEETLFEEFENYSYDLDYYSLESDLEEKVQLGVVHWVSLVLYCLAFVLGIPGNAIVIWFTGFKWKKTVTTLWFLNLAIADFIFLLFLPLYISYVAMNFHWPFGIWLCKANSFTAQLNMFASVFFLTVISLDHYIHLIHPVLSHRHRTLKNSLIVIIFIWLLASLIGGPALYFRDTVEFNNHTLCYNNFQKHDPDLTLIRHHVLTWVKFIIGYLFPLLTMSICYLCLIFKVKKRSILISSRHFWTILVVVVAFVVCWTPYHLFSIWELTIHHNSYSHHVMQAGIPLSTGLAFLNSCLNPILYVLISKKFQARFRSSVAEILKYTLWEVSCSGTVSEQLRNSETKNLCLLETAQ
Conditions: read-out: RC50 (the source's name).

For the next test, the target named is T10, CX3CR1 (Homo sapiens, UniProt P49238).
T10 sequence (P49238 1-355): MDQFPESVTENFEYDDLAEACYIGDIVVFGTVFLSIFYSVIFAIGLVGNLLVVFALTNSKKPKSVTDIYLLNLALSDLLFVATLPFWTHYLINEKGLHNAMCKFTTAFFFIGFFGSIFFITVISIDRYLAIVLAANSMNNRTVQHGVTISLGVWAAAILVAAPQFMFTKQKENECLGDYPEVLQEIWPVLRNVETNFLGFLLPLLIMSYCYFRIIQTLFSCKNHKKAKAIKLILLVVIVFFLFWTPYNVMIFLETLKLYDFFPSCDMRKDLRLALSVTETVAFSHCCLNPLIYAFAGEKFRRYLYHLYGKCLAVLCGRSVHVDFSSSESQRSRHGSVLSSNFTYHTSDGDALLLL
The note with it: read-out: RC50 (the source's name).

The next test has as its target GPR103 (Homo sapiens, UniProt Q96P65). The note with it: read-out: RC50 (the source's name).

Where no end group is shown, it is not given here.

Sequence of GPR103 (Q96P65 whole entry): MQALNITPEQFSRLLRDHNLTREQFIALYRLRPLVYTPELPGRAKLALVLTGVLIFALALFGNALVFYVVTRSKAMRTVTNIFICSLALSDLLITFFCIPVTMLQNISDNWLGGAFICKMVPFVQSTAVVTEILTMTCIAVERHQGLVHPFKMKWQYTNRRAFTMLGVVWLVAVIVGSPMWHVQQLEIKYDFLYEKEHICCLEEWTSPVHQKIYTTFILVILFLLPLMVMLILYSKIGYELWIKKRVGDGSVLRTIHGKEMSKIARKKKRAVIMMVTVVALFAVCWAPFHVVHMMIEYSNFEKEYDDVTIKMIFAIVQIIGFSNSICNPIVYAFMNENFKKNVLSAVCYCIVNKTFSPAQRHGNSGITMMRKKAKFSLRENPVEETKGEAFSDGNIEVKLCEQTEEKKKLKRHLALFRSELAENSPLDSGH
Sequence of EDG6 (O95977 whole entry): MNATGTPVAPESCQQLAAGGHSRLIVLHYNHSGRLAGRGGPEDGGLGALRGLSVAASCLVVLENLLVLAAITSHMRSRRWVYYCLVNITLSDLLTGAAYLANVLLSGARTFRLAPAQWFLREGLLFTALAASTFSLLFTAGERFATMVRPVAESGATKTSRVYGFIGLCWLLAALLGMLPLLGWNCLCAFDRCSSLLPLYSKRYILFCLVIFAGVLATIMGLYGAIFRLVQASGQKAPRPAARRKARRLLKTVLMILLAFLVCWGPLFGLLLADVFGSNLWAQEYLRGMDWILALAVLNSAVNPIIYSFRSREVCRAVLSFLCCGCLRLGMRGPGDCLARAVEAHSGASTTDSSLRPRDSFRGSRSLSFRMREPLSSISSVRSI
Sequence of EBI2 (P32249 whole entry): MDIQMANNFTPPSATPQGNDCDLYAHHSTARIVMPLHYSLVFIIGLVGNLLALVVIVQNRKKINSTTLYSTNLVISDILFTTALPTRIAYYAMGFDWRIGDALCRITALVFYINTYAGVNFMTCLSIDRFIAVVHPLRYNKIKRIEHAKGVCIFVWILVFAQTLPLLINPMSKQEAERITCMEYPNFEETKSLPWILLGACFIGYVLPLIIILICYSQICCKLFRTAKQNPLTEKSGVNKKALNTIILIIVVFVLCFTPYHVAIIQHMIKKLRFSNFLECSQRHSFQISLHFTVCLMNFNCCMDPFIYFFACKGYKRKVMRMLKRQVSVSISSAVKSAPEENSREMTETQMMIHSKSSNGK
Sequence of FFAR1 (O14842 whole entry): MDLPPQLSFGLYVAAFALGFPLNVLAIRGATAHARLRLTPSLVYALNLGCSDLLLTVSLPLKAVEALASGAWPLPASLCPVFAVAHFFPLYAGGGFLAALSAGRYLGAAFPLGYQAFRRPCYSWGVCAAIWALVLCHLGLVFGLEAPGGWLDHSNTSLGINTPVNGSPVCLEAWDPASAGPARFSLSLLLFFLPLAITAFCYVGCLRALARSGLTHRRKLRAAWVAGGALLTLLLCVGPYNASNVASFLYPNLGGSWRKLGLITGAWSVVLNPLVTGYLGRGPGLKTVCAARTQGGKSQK
Sequence of CRTH2 (Q9Y5Y4 whole entry): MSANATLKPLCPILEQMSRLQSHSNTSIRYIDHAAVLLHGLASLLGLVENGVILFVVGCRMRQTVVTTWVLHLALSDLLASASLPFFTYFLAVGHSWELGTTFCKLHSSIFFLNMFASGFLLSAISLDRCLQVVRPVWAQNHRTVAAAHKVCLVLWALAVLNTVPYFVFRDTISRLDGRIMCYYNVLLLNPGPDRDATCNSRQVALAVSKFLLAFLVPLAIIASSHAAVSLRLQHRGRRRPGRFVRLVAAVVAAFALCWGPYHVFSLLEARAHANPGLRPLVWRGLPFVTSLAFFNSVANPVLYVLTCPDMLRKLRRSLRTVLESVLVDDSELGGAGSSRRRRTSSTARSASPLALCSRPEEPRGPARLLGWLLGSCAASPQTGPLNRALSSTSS
Sequence of EDG1 (P21453 whole entry): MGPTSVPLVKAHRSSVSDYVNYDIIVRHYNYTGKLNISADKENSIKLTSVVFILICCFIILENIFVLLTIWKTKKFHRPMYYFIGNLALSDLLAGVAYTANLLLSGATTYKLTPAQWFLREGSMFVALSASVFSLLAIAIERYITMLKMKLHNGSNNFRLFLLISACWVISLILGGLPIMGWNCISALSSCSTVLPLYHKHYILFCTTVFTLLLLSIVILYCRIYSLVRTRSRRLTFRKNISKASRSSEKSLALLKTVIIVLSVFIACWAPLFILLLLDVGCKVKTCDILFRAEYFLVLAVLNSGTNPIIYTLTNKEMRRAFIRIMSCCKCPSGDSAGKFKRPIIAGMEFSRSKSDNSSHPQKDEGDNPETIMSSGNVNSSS
Sequence of EDG3 (Q99500 whole entry): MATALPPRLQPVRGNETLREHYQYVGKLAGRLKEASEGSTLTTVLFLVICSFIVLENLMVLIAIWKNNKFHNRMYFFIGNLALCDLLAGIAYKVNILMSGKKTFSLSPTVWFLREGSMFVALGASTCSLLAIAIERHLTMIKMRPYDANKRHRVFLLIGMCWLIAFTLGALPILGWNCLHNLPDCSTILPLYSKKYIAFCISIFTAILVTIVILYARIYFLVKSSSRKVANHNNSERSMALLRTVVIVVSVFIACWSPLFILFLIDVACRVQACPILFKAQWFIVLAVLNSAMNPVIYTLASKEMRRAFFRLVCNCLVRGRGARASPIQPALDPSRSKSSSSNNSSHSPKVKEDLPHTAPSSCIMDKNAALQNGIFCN
Sequence of CCR5 (P51681 whole entry): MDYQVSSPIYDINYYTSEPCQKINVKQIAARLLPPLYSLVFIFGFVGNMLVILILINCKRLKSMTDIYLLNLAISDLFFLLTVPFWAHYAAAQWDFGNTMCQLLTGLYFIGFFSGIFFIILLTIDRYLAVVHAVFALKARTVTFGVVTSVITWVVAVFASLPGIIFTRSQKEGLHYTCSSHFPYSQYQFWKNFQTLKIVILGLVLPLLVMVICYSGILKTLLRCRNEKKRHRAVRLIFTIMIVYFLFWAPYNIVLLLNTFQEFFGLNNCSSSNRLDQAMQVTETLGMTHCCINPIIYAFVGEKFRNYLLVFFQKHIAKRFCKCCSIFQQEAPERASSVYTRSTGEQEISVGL

The compound `C[C@H](CCCC(C)(C)O)[C@H]1CC[C@H]2[C@@H]3[C@H](O)C=C4C[C@@H](O)CC[C@]4(C)[C@H]3CC[C@]12C` [7a,25-Dihydroxycholesterol] gave an EC50 on EBI2 of 3.63 nM. Consider `O=C(O)CCc1ccc(NCc2cccc(Oc3ccccc3)c2)cc1` [GW9508], for which, at FFAR1, the EC50 was 959 nM.

For `CCCCC[C@H](O)/C=C/[C@H]1C(=O)C[C@H](O)[C@@H]1C/C=C\CCCC(=O)O` [PGD2], the EC50 at CRTH2 was 3.34 nM.

`CCCCCCCCCCCCC/C=C/[C@@H](O)[C@@H](N)COP(=O)(O)O` [S-1-P]: the EC50 at EDG1 came to 19 nM; on EDG3 it was 10.6 nM; on EDG6 it was 30.5 nM. For CCL2: control agonist, in the test with CCR2, the EC50 worked out at 2.63 nM.

For CCL3: control agonist, the EC50 was found to be 1.04 nM in the test with CCR1 and 7.55 nM with CCR5. For the compound CCL13: control agonist, the EC50 in the test with CCR3 stood at 40.6 nM. On to CCL19: control agonist, for which the EC50 in the test with CCR7 was determined as 5.65 nM.

As for CCL20: control agonist, the EC50 with CCR6 is 2.95 nM. Turning to CXCL8: control agonist, the EC50 is 2.8 nM with CXCR1 and 0.304 nM with CXCR2. Turning to CXCL11: control agonist, in the test with CXCR3, the EC50 amounted to 12 nM. In the case of CXCL13: control agonist, the EC50 in the test with CXCR5 stood at 21 nM. For the compound Chemerin: control agonist, the EC50 with GPR1 came to 2.26 nM. As for Fractalkine: control agonist, the EC50 with CX3CR1 was 0.444 nM. As for “TSGPLGNLAEELNGYSRKKGGFSFRF-NH2 (C-terminus assumed) [QRFP-26]”, on GPR103, the EC50 was determined as 10 nM.

Values taken from patent US20260184748A1, “COMPOSITIONS COMPRISING OCTADECANEUROPEPTIDES (ODN) AND SYNTHETIC DERIVATIVES THEREOF AND METHODS OF USE FOR MODULATION OF FOOD INTAKE, OBESITY, BODY WEIGHT, NAUSEA, AND EMESIS” (The Trustees of the University of Pennsylvania, priority 2022, published 2026).
